{
  "source": "the nanobody polyreactivity screen of Harvey et al. (2022)",
  "data": [
    {"test": "yeast display, Sf9 membrane polyspecificity reagent, FACS + sequencing; frameworks hold sequencing errors", "how_it_was_run": "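After 36–48 hours of galactose induction, yeast (Saccharomyces cerevisiae BJ5465) displaying a synthetic nanobody library were stained at 4 °C for 1 hour with 10% biotinylated, detergent-solubilized Sf9 membrane reagent. Streptavidin microbeads enriched the stained cells before FACS sorting into low and high (top ~1%) gates on anti-HA and streptavidin fluorescence. Each clone's polyreactivity label reflects its gate of origin.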", "values": [
      {"sequence": "QVQLVESGGGLVQAGGSLRLSCAASGSIFTKYAMGWYRQAPGKERELVAAINARGGSTYYADSVKGRFTISRDNAKNTVYLQMNSLKPEDTAVYYCAARYGVGRADYYWGHGTQVTVSS", "polyreactivity (PSR sort gate)": "high polyreactivity"},
      {"sequence": "QVQLVESGGGLVQAGGSLRLSCAASGSIFTKYAMGWYRQAPGKERELVAAISASGGSTYYADSVKGRFTISRDNAKNTVYLQMNSLKPEDTAVYYCAARYWVREDYWGQGTQVTVSS", "polyreactivity (PSR sort gate)": "high polyreactivity"},
      {"sequence": "QVQLVESGGGLVQAGGSLRLSCAASGSIFTKYAMGWYRQAPGKERELVAAISSSGGSTYYADSVKGRFTISRDNAKNTVYLQMNSLKPEDTAVYYCAAEAVYYRSWRYYYWGQGTQVTVSS", "polyreactivity (PSR sort gate)": "high polyreactivity"},
      {"sequence": "QVQLVESGGGLVQAGGSLRLSCAASGSIFTLNTMGWYIQAPGKERELVAVISRSGDRTYYADSVKGRFTISRDNAKNTVYLQMNSLKPEDTAVYYCAADTTKRVRGYDYWGQGTQVTVSS", "polyreactivity (PSR sort gate)": "high polyreactivity"},
      {"sequence": "QVQLVESGGGLVQAGGSLRLSCAASGSIFTLYAMGWYRQAPGKEREFVAGISFSTGRTYYADSVKGRFTISRDNAKNTVYLQMNSLKPEDTAVYYCAAYVSHYWYGVYRDGYWGQGTQVTVSS", "polyreactivity (PSR sort gate)": "low polyreactivity"},
      {"sequence": "QVQLVESGGGLVQAGGSLRLSCAASGSIFTLYAMGWYRQAPGKERELVAAINRSGGSTYYADSVKGRFTISRDNAKNTVYLQMNSVKPEATAVYYCNARQYTGRRYDYWGQGTQVTVSS", "polyreactivity (PSR sort gate)": "high polyreactivity"},
      {"sequence": "QVQLVESGGGLVQAGGSLRLSCAASGSIFTLYAMGWYRQAPGKERELVAAITRSGGSTYYADSVKGRFTISRDNAKNTVYLQMNSLKPEDTAVYYCNKATAYGLDYWGQATQVTVSS", "polyreactivity (PSR sort gate)": "high polyreactivity"},
      {"sequence": "QVQLVESGGGLVQAGGSLRLSCAASGSIFTLYAMGWYRQAPGKERELVATINWSGGSTSYADSVKGRFTISRDNAKNTVYLQMNSLKPEDTAVYYCAADYYFWHGTGYDYWGQGTQVTVSS", "polyreactivity (PSR sort gate)": "low polyreactivity"},
      {"sequence": "QVQLVESGGGLVQAGGSLRLSCAASGSIFTPNAMGGYRQAPGKERELVAAISSSSDRTYYADSVKGRFTISRDNAKNTVYLQMNRLKPEDTAVYYCAAYAQKRYYWGQGTQVTVSS", "polyreactivity (PSR sort gate)": "high polyreactivity"},
      {"sequence": "QVQLVESGGGLVQAGGSLRLSCAASGSIFTPNAMGWYRQAPGKERELVAAISWSGARTYYADSVKGRFTISRDNAKNTVYLQMNSLKPEDTAVYYSYAFGSWGQGTQVTVSS", "polyreactivity (PSR sort gate)": "high polyreactivity"},
      {"sequence": "QVQLVESGGGLVQAGGSLRLSCAASGSIFTPYAMGWYRQAPGKERELGATISWSGGRTYYADSVKGRFTISRDNAKNTVYLQMNSLKPEDSAVYYCAARGYSSEYDYWGQGTQVTVSS", "polyreactivity (PSR sort gate)": "high polyreactivity"},
      {"sequence": "QVQLVESGGGLVQAGGSLRLSCAASGSIFTPYAMGWYRQAPGKERELVAAISWRGGNTYYADSVKGRFTISRDNAKNTFYLQMNSLKPEETAVYYCAAEQYSVYETGSYDYWGQGTQVTVSS", "polyreactivity (PSR sort gate)": "low polyreactivity"},
      {"sequence": "QVQLVESGGGLVQAGGSLRLSCAASGSIFTPYAMGWYRQAPGKEREVVATITWTGGSTYYADSVKGRFTISRDNAINTVYLQMNSLKPEDTAVYYCAADTYRSGRAYYYWGQGTQVTVSS", "polyreactivity (PSR sort gate)": "low polyreactivity"},
      {"sequence": "QVQLVESGGGLVQAGGSLRLSCAASGSIFTQYAMGWYRQAPGKERELVAAITSSGGSTHYADSVKGRFTISRDNAKNTVYLQMNSLKPEDTAVYYCAVPSFVYATFPYGYWGQGTQVTVSS", "polyreactivity (PSR sort gate)": "low polyreactivity"},
      {"sequence": "QVQLVESGGGLVQAGGSLRLSCAASGSIFTQYTMGWYRQAPGKERELVAAISRSGGRTYYADSVKGRFTISRDIAKNTVYLQMNSLKPEDTAVYYCAAEYTDKYEYWGQGTQVTVSS", "polyreactivity (PSR sort gate)": "high polyreactivity"},
      {"sequence": "QVQLVESGGGLVQAGGSLRLSCAASGSIFTRNAMGWYRQAPGKEREFVAAISSSGVSTYYADSVKGRFTISRDNAKNTVYLQMNSLKPEDTAVYYCAARWGTKSGRYDYWGQGTQVTVSS", "polyreactivity (PSR sort gate)": "high polyreactivity"},
      {"sequence": "QVQLVESGGGLVQAGGSLRLSCAASGSIFTRYAMGGYRQAPGKERELVAAITAGGSSPYYADSVKGRFTISRDNAKNTVYLQMNSLKPEDTAVYYCNAVWWHPTDYDYWGQGSQVTVSS", "polyreactivity (PSR sort gate)": "low polyreactivity"},
      {"sequence": "QVQLVESGGGLVQAGGSLRLSCAASGSIFTSNAMGWYRQAPGKERELVAAISWSGTSTYYADSVKGRFTISRDNAKNTVYLQMNSLKPEDTAVYYCNADTNYWEDDYWGQGTQVTVSS", "polyreactivity (PSR sort gate)": "low polyreactivity"}
    ]}
  ]
}
